This is an account of results in patent US20190177414A1 (AKESO BIOPHARMA, published 2019).

The assay has as its target T1, CTLA4 antigen (CTLA4 protein obtained by cleaving the CTLA4-mFc fusion protein with TEV protease) (human, UniProt P16410 36-161).
T1 construct: extracellular domain; after cleavage part of the TEV site may remain at the C-terminus; also called CTLA4ECD
T1 sequence (looked up): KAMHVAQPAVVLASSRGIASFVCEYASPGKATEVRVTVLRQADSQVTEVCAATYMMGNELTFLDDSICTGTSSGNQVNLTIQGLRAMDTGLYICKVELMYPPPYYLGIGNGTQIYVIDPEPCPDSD
Kind of assay: Octet (ForteBio) BLI; antibody amine-coupled to AR2G sensor, CTLA4 antigen in solution. Here is the method:
The dynamic parameters of the antigen—antibody binding were determined using the ForteBio molecular interaction analyzer (Octet). The CTLA4-mFc fusion protein prepared in Example 1 was cleaved using the TEV protease, and the CTLA4 antigen was obtained by purification on a column. […] After equilibration in PBST, the CTLA4 antigen was added for binding. […] Dissociation occurred in PBST.
Background: BLI is a label-free optical method that tracks binding on a fibre tip over time.

B1: anti-CTLA4 antibody 4G10 (antibody, V domains shown)
VH: QVKLQESGPELVKPGASMKISCKASGYSFTGYTMNWVKQSHGKNLEWIGLINPYNNITNYNQKFMGKATFTVDKSSSTAYMELLRLTSEDSGVYFCARLDYRSYWGQGTLVTVSA
VL: QAVVTQESALTTSPGETVTLTCRSSTGAVTTSNFANWVQEKPDHLFTSLIGGTNNRAPGVPARFSGSLIGDKAALTITGAQTEDEAIYFCALWYSNHWVFGGGTKLTVLG
notes: Mouse monoclonal antibody purified from hybridoma supernatant; also called monoclonal antibody secreted by hybridoma cell line LT002 (CTLA4-4G10)
What is called Kd is the concentration at which binding is half-saturated. A high value points to a looser complex. As usually defined, the koff is the first-order rate constant of dissociation. Low readings indicate slow dissociation, high ones fast dissociation. For orientation: kon means the second-order rate constant of association. Low values mean slower complex formation, high ones faster complex formation. Take B1: the Kd came out at 0.301 nM, the koff was found to be 0.000114 s⁻¹ and the kon worked out at 378000 M⁻¹ s⁻¹.
